Reference: publication PMC5737387 (Nucleic Acids Research, 2017)

Tests used:
[1] = target: p44ct(368–534) (Chaetomium thermophilum); assay: ITC
full length p44hs = full length p44hs (Homo sapiens, UniProt Q13888 1-395); assay: co-IP
Sequence of full length p44hs (Q13888 whole entry): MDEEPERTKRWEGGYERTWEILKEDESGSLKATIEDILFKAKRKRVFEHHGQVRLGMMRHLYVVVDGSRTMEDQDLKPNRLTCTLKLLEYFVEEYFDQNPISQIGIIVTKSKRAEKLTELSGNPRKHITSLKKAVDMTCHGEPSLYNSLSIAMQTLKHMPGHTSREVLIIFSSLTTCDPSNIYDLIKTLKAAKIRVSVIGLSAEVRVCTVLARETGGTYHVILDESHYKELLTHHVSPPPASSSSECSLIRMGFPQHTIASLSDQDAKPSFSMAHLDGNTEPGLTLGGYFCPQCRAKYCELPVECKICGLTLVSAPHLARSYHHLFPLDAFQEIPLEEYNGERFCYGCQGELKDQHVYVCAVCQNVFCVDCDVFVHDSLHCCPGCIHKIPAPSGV

Molecule: p34ct(1–277) (domain or fragment)
- Kd [1]: 11 nM
- dH [1]: -25 kcal/mol
- stoichiometry N [1]: 0.71

B1: full length p34hs (natural protein)
chain: MVSDEDELNLLVIVVDANPIWWGKQALKESQFTLSKCIDAVMVLGNSHLFMNRSNKLAVIASHIQESRFLYPGKNGRLGDFFGDPGNPPEFNPSGSKDGKYELLTSANEVIVEEIKDLMTKSDIKGQHTETLLAGSLAKALCYIHRMNKEVKDNQEMKSRILVIKAAEDSALQYMNFMNVIFAAQKQNILIDACVLDSDSGLLQQACDITGGLYLKVPQMPSLLQYLLWVFLPDQDQRSQLILPPPVHVDYRAACFCHRNLIEIGYVCSVCLSIFCNFSPICTTCETAFKISLPPVLKAKKKKLKVSA
- binding result (full length p44hs): binds
